Measurements taken from the RNAGym collection of RNA variant scans (doi:10.1073/pnas.2313332121).
This sample holds only a part of the variants without activity.

B1: TPR 5TU (parent)
chain: GGAUCUUCUCGAUCUAACAAAAAAGACAAAUCUGCCACAAAGCUUGAGAGCAUCUUCGGAUGCAGAGGCGGCAGCCUUCGGUGGCGCGAUAGCGCCAACGUUCUCAACUAUGACACGCAAAACGCGUGCUCCGUUGAAUGGAGUUUAUCAUG

Variants of: B1
Test: polymerase ribozyme fitness, log enrichment relative to wild type (log ratio); higher = more active; in vitro selection for triplet polymerase activity
Procedure, shortened: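 Genotype fitness is the logarithm of its enrichment divided by wild-type enrichment, using inverse-variance-weighted averages of replicates. That logarithm is base 2. Enrichment was measured by Illumina sequencing of input and output libraries from one triplicate in vitro selection round, with frozen incubation at −7 °C, on PCR-built, transcribed mutant libraries of each subunit of a heterodimeric triplet polymerase ribozyme, retaining genotypes with ≥10 input reads and ≥1 read per output.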

Point of comparison: C35U A73G, “polymerase ribozyme fitness (log ratio)” value -0.161. Against it:
- C35A G58U — lower, -2.81
- C36A G92A U101A — lower, ≤ -4.2
- C36U G58A C87A C131U G143A — lower, ≤ -4.2
- C35U U44A C54A C87U A110U — lower, ≤ -4.2
- C35U U56A U61A C63U A64G — lower, ≤ -4.2
- C36A U78A — lower, ≤ -4.2
- C35A U90A U111C A137C — lower, ≤ -4.2
- C35U U44A A49C G74U G80A U109G A121G — lower, ≤ -4.2
- C35U A49C C79A C87A A119U — lower, ≤ -4.2
- C35G C54U A60U C85A — lower, ≤ -4.2
- C35A U144G U151A — lower, ≤ -4.2
- C35A U44A G70C C76U C103G U145G — lower, ≤ -4.2
- C35G G42A U130G C131A — lower, -4.12
- C36A U56G G68C A98G C103A A121U — lower, ≤ -4.2
- C35U A52C C85U G117U — lower, -2.29
- C35U A52G A60C A121U — lower, -3.29
- C35U C38G U56A — lower, -1.43
- C36G U55G A73U C108U C118A G133U — lower, -4.17
- C35A G94C — lower, -2.74
- C35A G94A — lower, -3.56
- A37C A41G G86C G92U C95U — lower, -3.05
- C35A U44A C63U G70A G80C C87G — lower, ≤ -4.2
- C36U G58U G94A C105U C125U U135C — lower, -3.89
- C35U G50C — lower, -3.9
- C35U C96U — within 0.2 log units, -0.126
- C35U C96G — lower, -0.818
- C36A A122U G126A G136C — lower, ≤ -4.2
- A37C A64U A66G C85A A107G — lower, ≤ -4.2
- C36U A142G — lower, -2.16
- C36A U56G G141U — lower, ≤ -4.2
- C35U G84C — lower, -1.94
- C36A C96U U111G — lower, ≤ -4.2
- C36U A73U A138U G140C — lower, ≤ -4.2
- C35G G58C C125U A147C — lower, ≤ -4.2
- C35G G62C G67C C85G C131A A147U — lower, ≤ -4.2
- C35U C76G A89U A97G — lower, ≤ -4.2
- C35U G50U U56A G68A C85U A137C — lower, ≤ -4.2
- C35U U61A A66C C69U — lower, ≤ -4.2
- C35U A41C U53A C75G C114U G136U — lower, ≤ -4.2
- C36A A73U G92U U134G G143U — lower, -4.13
- C36U C96G — lower, -2.56
- C35U G92U C116U — higher, 0.616
- C35U A115U — lower, -1.54
- C35G G83C A91C C108U G136U — lower, ≤ -4.2
- C35U C38A G83U G152A — lower, ≤ -4.2
- C36A G62C C63U — lower, ≤ -4.2
- C35A C95G — lower, -4.1
- C35G C87U C118U — lower, -4.18
- C35U A73U C75G C76G U90C — lower, ≤ -4.2
- C36A A98U A107U C131A U146G — lower, ≤ -4.2
- C35U G46U C96U — lower, -1.23
- C36A C79U — lower, ≤ -4.2
- C36G A97G — lower, -3.56
- C35U A49G A97G A119C — lower, -2.09
- C35U G50U G59C A60U C85A G94C G141A — lower, ≤ -4.2
- C35G U55G U61A C79G C93G A107G — lower, ≤ -4.2
- C35G A52U U53A U56A C93G C96U C105G G152A — lower, ≤ -4.2
- C36A U45C C95U C114U A119U — lower, ≤ -4.2
- C35G G50A G58A A66C C75A C87U — lower, ≤ -4.2
- C35U C38G G86A G126A G136U — lower, ≤ -4.2
- C35U C93A C103G — lower, ≤ -4.2
- C36U C76U C85G — lower, -2.42
- C35U U55A G84U A147C — lower, -2.79
- C35U C36A U55G U127A — lower, -3.9
- C35G A60C — lower, -3.99
- C35G C57U C85G U151A — lower, ≤ -4.2
- C35U C43G C93A C103G — lower, ≤ -4.2
- C36G C87G A91C A98U C114U A119U A122G — lower, ≤ -4.2
- C35A U53A U61A G62C A64G A66C C87G G152U — lower, ≤ -4.2
- C35G G48U G70A G92C C96G U146A — lower, ≤ -4.2
- C35G A39C U82C C116U C125G G133A — lower, ≤ -4.2
- C36A A49C G71U G92A A107G U145C — lower, ≤ -4.2
- C35A G81U A97U A98U — lower, -3.76
- C35U C51U U55C C85A U101C C103A U144A — lower, ≤ -4.2
- A37C A60C C69U C85A U146G — lower, -3.76
- C36G G59U C105G — lower, ≤ -4.2
- C36A A39C U56C C87U U144G — lower, ≤ -4.2
- C35U G88A — lower, -4.1
- C36A G46A C96U U148A — lower, ≤ -4.2
- C36U U55A — lower, -0.574
- C35G U139C — lower, ≤ -4.2
- A37C A40C G48C G74A G94A G126C G133A G136A A150U — lower, ≤ -4.2
